In paper PMC9585388 (Research and Practice in Thrombosis and Haemostasis, 2022):

Target: T1, fibrinogen (UniProt P02671-2;P02675;P02679-2)
T1 sequence 1: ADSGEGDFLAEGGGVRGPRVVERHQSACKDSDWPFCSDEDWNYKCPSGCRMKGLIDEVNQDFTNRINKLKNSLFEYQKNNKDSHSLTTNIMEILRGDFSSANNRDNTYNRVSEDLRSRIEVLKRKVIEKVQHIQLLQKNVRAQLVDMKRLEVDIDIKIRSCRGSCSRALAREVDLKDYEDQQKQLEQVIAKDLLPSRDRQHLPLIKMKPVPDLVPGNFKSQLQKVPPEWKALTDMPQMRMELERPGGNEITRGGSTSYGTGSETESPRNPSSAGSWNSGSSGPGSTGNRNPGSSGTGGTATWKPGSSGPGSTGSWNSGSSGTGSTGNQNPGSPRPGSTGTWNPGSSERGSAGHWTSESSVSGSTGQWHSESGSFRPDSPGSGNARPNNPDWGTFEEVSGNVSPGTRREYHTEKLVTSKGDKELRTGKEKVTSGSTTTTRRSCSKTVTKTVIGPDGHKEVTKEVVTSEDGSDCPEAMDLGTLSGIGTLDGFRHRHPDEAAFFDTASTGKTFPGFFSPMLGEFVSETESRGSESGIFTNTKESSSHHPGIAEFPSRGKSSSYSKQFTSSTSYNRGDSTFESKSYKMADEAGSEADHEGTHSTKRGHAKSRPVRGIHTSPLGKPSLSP
T1 sequence 2: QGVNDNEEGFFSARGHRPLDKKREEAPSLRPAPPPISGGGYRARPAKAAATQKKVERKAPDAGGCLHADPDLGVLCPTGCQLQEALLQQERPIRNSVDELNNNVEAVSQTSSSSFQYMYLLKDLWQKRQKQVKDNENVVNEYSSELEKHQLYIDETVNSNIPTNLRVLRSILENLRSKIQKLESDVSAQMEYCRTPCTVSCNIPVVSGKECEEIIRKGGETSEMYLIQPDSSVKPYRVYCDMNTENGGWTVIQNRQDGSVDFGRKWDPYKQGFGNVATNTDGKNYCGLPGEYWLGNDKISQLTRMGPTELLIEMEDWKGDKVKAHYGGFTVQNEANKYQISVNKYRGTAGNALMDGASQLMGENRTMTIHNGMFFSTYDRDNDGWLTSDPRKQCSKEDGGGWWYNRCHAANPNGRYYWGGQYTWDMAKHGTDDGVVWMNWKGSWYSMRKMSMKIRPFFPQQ
T1 sequence 3: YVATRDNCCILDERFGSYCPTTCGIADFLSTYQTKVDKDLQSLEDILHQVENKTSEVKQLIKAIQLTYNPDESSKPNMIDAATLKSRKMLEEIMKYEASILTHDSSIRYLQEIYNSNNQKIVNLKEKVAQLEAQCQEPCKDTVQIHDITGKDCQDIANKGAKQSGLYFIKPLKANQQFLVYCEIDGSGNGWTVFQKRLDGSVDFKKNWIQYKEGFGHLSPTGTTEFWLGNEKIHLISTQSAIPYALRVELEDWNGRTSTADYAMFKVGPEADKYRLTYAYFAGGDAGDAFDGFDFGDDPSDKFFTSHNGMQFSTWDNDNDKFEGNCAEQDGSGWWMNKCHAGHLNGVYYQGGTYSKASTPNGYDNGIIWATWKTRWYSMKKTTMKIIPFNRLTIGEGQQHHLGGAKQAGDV
Experiment: BLI

B1: recombinant FXIII‐B (natural protein)
chain: EEKPCGFPHVENGRIAQYYYTFKSFYFPMSIDKKLSFFCLAGYTTESGRQEEQTTCTTEGWSPEPRCFKKCTKPDLSNGYISDVKLLYKIQENMRYGCASGYKTTGGKDEEVVQCLSDGWSSQPTCRKEHETCLAPELYNGNYSTTQKTFKVKDKVQYECATGYYTAGGKKTEEVECLTYGWSLTPKCTKLKCSSLRLIENGYFHPVKQTYEEGDVVQFFCHENYYLSGSDLIQCYNFGWYPESPVCEGRRNRCPPPPLPINSKIQTHSTTYRHGEIVHIECELNFEIHGSAEIRCEDGKWTEPPKCIEGQEKVACEEPPFIENGAANLHSKIYYNGDKVTYACKSGYLLHGSNEITCNRGKWTLPPECVENNENCKHPPVVMNGAVADGILASYATGSSVEYRCNEYYLLRGSKISRCEQGKWSSPPVCLEPCTVNVDYMNRNNIEMKWKYEGKVLHGDLIDFVCKQGYDLSPLTPLSELSVQCNRGEVKYPLCTRKESKGMCTSPPLIKHGVIISSTVDTYENGSSVEYRCFDHHFLEGSREAYCLDGMWTTPPLCLEPCTLSFTEMEKNNLLLKWDFDNRPHILHGEYIEFICRGDTYPAELYITGSILRMQCDRGQLKYPRCIPRQSTLSYQEPLRT
Kd: 46.9 nM
